Measurements from PMC5923425, “Structural analysis of human ARS2 as a platform for co-transcriptional RNA sorting” (Nature Communications, 2018).

B1: EGFP–ARS2 wt [human] / ZFC3H1 [human (endogenous in HEK 293T/17)] (parent complex)
chain 1: MGDSDDEYDRRRRDKFRRERSDYDRSRERDERRRGDDWNDREWDRGRERRSRGEYRDYDRNRRERFSPPRHELSPPQKRMRRDWDEHSSDPYHSGYEMPYAGGGGGPTYGPPQPWGHPDVHIMQHHVLPIQARLGSIAEIDLGVPPPVMKTFKEFLLSLDDSVDETEAVKRYNDYKLDFRRQQMQDFFLAHKDEEWFRSKYHPDEVGKRRQEARGALQNRLRVFLSLMETGWFDNLLLDIDKADAIVKMLDAAVIKMEGGTENDLRILEQEEEEEQAGKPGEPSKKEEGRAGAGLGDGERKTNDKDEKKEDGKQAENDSSNDDKTKKSEGDGDKEEKKEDSEKEAKKSSKKRNRKHSGDDSFDEGSVSESESESESGQAEEEKEEAEALKEKEKPKEEEWEKPKDAAGLECKPRPLHKTCSLFMRNIAPNISRAEIISLCKRYPGFMRVALSEPQPERRFFRRGWVTFDRSVNIKEICWNLQNIRLRECELSPGVNRDLTRRVRNINGITQHKQIVRNDIKLAAKLIHTLDDRTQLWASEPGTPPLPTSLPSQNPILKNITDYLIEEVSAEEEELLGSSGGAPPEEPPKEGNPAEINVERDEKLIKVLDKLLLYLRIVHSLDYYNTCEYPNEDEMPNRCGIIHVRGPMPPNRISHGEVLEWQKTFEEKLTPLLSVRESLSEEEAQKMGRKDPEQEVEKFVTSNTQELGKDKWLCPLSGKKFKGPEFVRKHIFNKHAEKIEEVKKEVAFFNNFLTDAKRPALPEIKPAQPPGPAQSLTPGLPYPHQTPQGLMPYGQPRPPILGYGAGAVRPAVPTGGPPYPHAPYGAGRGNYDAFRGQGGYPGKPRNRMVRGDPRAIVEYRDLDAPDDVDFF
chain 2: MATADTPAPASSGLSPKEEGELEDGEISDDDNNSQIRSRSSSSSSGGGLLPYPRRRPPHSARGGGSGGGGGSSSSSSSSQQQLRNFSRSRHASERGHLRGPSSYRPKEPFRSHPPSVRMPSSSLSESSPRPSFWERSHLALDRFRFRGRPYRGGSRWSRGRGVGERGGKPGCRPPLGGGAGSGFSSSQSWREPSPPRKSSKSFGRSPSRKQNYSSKNENCVEETFEDLLLKYKQIQLELECINKDEKLALSSKEENVQEDPKTLNFEDQTSTDNVSITKDSSKEVAPEEKTQVKTFQAFELKPLRQKLTLPGDKNRLKKVKDGAKPLSLKSDTTDSSQGLQDKEQNLTRRISTSDILSEKKLGEDEEELSELQLRLLALQSASKKWQQKEQQVMKESKEKLTKTKTVQQKVKTSTKTHSAKKVSTTAKQALRKQQTKAWKKLQQQKEQERQKEEDQRKQAEEEERRKREEEIRKIRDLSNQEEQYNRFMKLVGGKRRSRSKSSDPDLRRSLDKQPTDSGGGIYQYDNYEEVAMDTDSETSSPAPSPVQPPFFSECSLGYFSPAPSLSLPPPPQVSSLPPLSQPYVEGLCVSLEPLPPLPPLPPLPPEDPEQPPKPPFADEEEEEEMLLREELLKSLANKRAFKPEETSSNSDPPSPPVLNNSHPVPRSNLSIVSINTVSQPRIQNPKFHRGPRLPRTVISLPKHKSVVVTLNDSDDSESDGEASKSTNSVFGGLESMIKEARRTAEQASKPKVPPKSEKENDPLRTPEALPEEKKIEYRLLKEEIANREKQRLIKSDQLKTSSSSPANSDVEIDGIGRIAMVTKQVTDAESKLKKHRILLMKDESVLKNLVQQEAKKKESVRNAEAKITKLTEQLQATEKILNVNRMFLKKLQEQIHRVQQRVTIKKALTLKYGEELARAKAVASKEIGKRKLEQDRFGPNKMMRLDSSPVSSPRKHSAELIAMEKRRLQKLEYEYALKIQKLKEARALKAKEQQNISPVVEEEPEFSLPQPSLHDLTQDKLTLDTEENDVDDEILSGSSRERRRSFLESNYFTKPNLKHTDTANKECINKLNKNTVEKPELFLGLKIGELQKLYSKADSLKQLILKTTTGITEKVLHGQEISVDVDFVTAQSKTMEVKPCPFRPYHSPLLVFKSYRFSPYYRTKEKLPLSSVSYSNMIEPDQCFCRFDLTGTCNDDDCQWQHIQDYTLSRKQLFQDILSYNLSLIGCAETSTNEEITASAEKYVEKLFGVNKDRMSMDQMAVLLVSNINESKGHTPPFTTYKDKRKWKPKFWRKPISDNSFSSDEEQSTGPIKYAFQPENQINVPALDTVVTPDDVRYFTNETDDIANLEASVLENPSHVQLWLKLAYKYLNQNEGECSESLDSALNVLARALENNKDNPEIWCHYLRLFSKRGTKDEVQEMCETAVEYAPDYQSFWTFLHLESTFEEKDYVCERMLEFLMGAAKQETSNILSFQLLEALLFRVQLHIFTGRCQSALAILQNALKSANDGIVAEYLKTSDRCLAWLAYIHLIEFNILPSKFYDPSNDNPSRIVNTESFVMPWQAVQDVKTNPDMLLAVFEDAVKACTDESLAVEERIEACLPLYTNMIALHQLLERYEAAMELCKSLLESCPINCQLLEALVALYLQTNQHDKARAVWLTAFEKNPQNAEVFYHMCKFFILQNRGDNLLPFLRKFIASFFKPGFEKYNNLDLFRYLLNIPGPIDIPSRLCKGNFDDDMFNHQVPYLWLIYCLCHPLQSSIKETVEAYEAALGVAMRCDIVQKIWMDYLVFANNRAAGSRNKVQEFKFFTDLVNRCLVTVPARYPIPFSSADYWSNYEFHNRVIFFYLSCVPKTQHSKTLERFCSVMPANSGLALRLLQHEWEESNVQILKLQAKMFTYNIPTCLATWKIAIAAEIVLKGQREVHRLYQRALQKLPLCASLWKDQLLFEASEGGKTDNLRKLVSKCQEIGVSLNELLNLNSNKTESKNH
B2: EGFP–ARS2 wt [human] / RBM7 [human (endogenous in HEK 293T/17)] (parent complex)
chain 1: B1 chain 1
chain 2: MGAAAAEADRTLFVGNLETKVTEELLFELFHQAGPVIKVKIPKDKDGKPKQFAFVNFKHEVSVPYAMNLLNGIKLYGRPIKIQFRSGSSHAPQDVSLSYPQHHVGNSSPTSTSPSRYERTMDNMTSSAQIIQRSFSSPENFQRQAVMNSALRQMSYGGKFGSSPLDQSGFSPSVQSHSHSFNQSSSSQWRQGTPSSQRKVRMNSYPYLADRHYSREQRYTDHGSDHHYRGKRDDFFYEDRNHDDWSHDYDNRRDSSRDGKWRSSRH
B3: EGFP–ARS2 wt [human] / hMTR4 [human (endogenous in HEK 293T/17)] (parent complex)
chain 1: B1 chain 1
chain 2: MADAFGDELFSVFEGDSTTAAGTKKDKEKDKGKWKGPPGSADKAGKRFDGKLQSESTNNGKNKRDVDFEGTDEPIFGKKPRIEESITEDLSLADLMPRVKVQSVETVEGCTHEVALPAEEDYLPLKPRVGKAAKEYPFILDAFQREAIQCVDNNQSVLVSAHTSAGKTVCAEYAIALALREKQRVIFTSPIKALSNQKYREMYEEFQDVGLMTGDVTINPTASCLVMTTEILRSMLYRGSEVMREVAWVIFDEIHYMRDSERGVVWEETIILLPDNVHYVFLSATIPNARQFAEWICHLHKQPCHVIYTDYRPTPLQHYIFPAGGDGLHLVVDENGDFREDNFNTAMQVLRDAGDLAKGDQKGRKGGTKGPSNVFKIVKMIMERNFQPVIIFSFSKKDCEAYALQMTKLDFNTDEEKKMVEEVFSNAIDCLSDEDKKLPQVEHVLPLLKRGIGIHHGGLLPILKETIEILFSEGLIKALFATETFAMGINMPARTVLFTNARKFDGKDFRWISSGEYIQMSGRAGRRGMDDRGIVILMVDEKMSPTIGKQLLKGSADPLNSAFHLTYNMVLNLLRVEEINPEYMLEKSFYQFQHYRAIPGVVEKVKNSEEQYNKIVIPNEESVVIYYKIRQQLAKLGKEIEEYIHKPKYCLPFLQPGRLVKVKNEGDDFGWGVVVNFSKKSNVKPNSGELDPLYVVEVLLRCSKESLKNSATEAAKPAKPDEKGEMQVVPVLVHLLSAISSVRLYIPKDLRPVDNRQSVLKSIQEVQKRFPDGIPLLDPIDDMGIQDQGLKKVIQKVEAFEHRMYSHPLHNDPNLETVYTLCEKKAQIAIDIKSAKRELKKARTVLQMDELKCRKRVLRRLGFATSSDVIEMKGRVACEISSADELLLTEMMFNGLFNDLSAEQATALLSCFVFQENSSEMPKLTEQLAGPLRQMQECAKRIAKVSAEAKLEIDEETYLSSFKPHLMDVVYTWATGATFAHICKMTDVFEGSIIRCMRRLEELLRQMCQAAKAIGNTELENKFAEGITKIKRDIVFAASLYL
B4: EGFP–ARS2 wt [human] / NCBP3 (endogenous) [human (endogenous in HEK 293T/17)] (parent complex)
chain 1: B1 chain 1
chain 2: MAAVRGLRVSVKAEAPAGPALGLPSPEAESGVDRGEPEPMEVEEGELEIVPVRRSLKELIPDTSRRYENKAGSFITGIDVTSKEAIEKKEQRAKRFHFRSEVNLAQRNVALDRDMMKKAIPKVRLETIYICGVDEMSTQDVFSYFKEYPPAHIEWLDDTSCNVVWLDEMTATRALINMSSLPAQDKIRSRDASEDKSAEKRKKDKQEDSSDDDEAEEGEVEDENSSDVELDTLSQVEEESLLRNDLRPANKLAKGNRLFMRFATKDDKKELGAARRSQYYMKYGNPNYGGMKGILSNSWKRRYHSRRIQRDVIKKRALIGDDVGLTSYKHRHSGLVNVPEEPIEEEEEEEEEEEEEEEEDQDMDADDRVVVEYHEELPALKQPRERSASRRSSASSSDSDEMDYDLELKMISTPSPKKSMKMTMYADEVESQLKNIRNSMRADSVSSSNIKNRIGNKLPPEKFADVRHLLDEKRQHSRPRPPVSSTKSDIRQRLGKRPHSPEKAFSSNPVVRREPSSDVHSRLGVPRQDSKGLYADTREKKSGNLWTRLGSAPKTKEKNTKKVDHRAPGAEEDDSELQRAWGALIKEKEQSRQKKSRLDNLPSLQIEVSRESSSGSEAES
B5: EGFP–ARS2 wt [human] / ZCCHC8 [human (endogenous in HEK 293T/17)] (parent complex)
chain 1: B1 chain 1
chain 2: MAAEVYFGDLELFEPFDHPEESIPKPVHTRFKDDDGDEEDENGVGDAELRERLRQCEETIEQLRAENQELKRKLNILTRPSGILVNDTKLDGPILQILFMNNAISKQYHQEIEEFVSNLVKRFEEQQKNDVEKTSFNLLPQPSSIVLEEDHKVEESCAIKNNKEAFSVVGSVLYFTNFCLDKLGQPLLNENPQLSEGWEIPKYHQVFSHIVSLEGQEIQVKAKRPKPHCFNCGSEEHQMKDCPMPRNAARISEKRKEYMDACGEANNQNFQQRYHAEEVEERFGRFKPGVISEELQDALGVTDKSLPPFIYRMRQLGYPPGWLKEAELENSGLALYDGKDGTDGETEVGEIQQNKSVTYDLSKLVNYPGFNISTPRGIPDEWRIFGSIPMQACQQKDVFANYLTSNFQAPGVKSGNKRSSSHSSPGSPKKQKNESNSAGSPADMELDSDMEVPHGSQSSESFQFQPPLPPDTPPLPRGTPPPVFTPPLPKGTPPLTPSDSPQTRTASGAVDEDALTLEELEEQQRRIWAALEQAESVNSDSDVPVDTPLTGNSVASSPCPNELDLPVPEGKTSEKQTLDEPEVPEIFTKKSEAGHASSPDSEVTSLCQKEKAELAPVNTEGALLDNGSVVPNCDISNGGSQKLFPADTSPSTATKIHSPIPDMSKFATGITPFEFENMAESTGMYLRIRSLLKNSPRNQQKNKKASE

Variants of: B1
Assay: EGFP pull down, LC–MS/MS (AP–MS, TMT labelled); HEK 293T/17 cells; three independent affinity purifications per bait; read off a plot

Variant | screen value
chain 1 K719A, chain 1 K722A, chain 1 K734A | ~-2.8

Variants of: B2
Assay: as above

Variant | screen value
chain 1 K719A, chain 1 K722A, chain 1 K734A | ~-1.8

Variants of: B3
Assay: as above

Variant | screen value
chain 1 K719A, chain 1 K722A, chain 1 K734A | ~-2.7

Variants of: B4
Assay: as above

Variant | screen value
chain 1 K719A, chain 1 K722A, chain 1 K734A | ~-3.1

Variants of: B5
Assay: as above

Variant | screen value
chain 1 K719A, chain 1 K722A, chain 1 K734A | ~-1.7
